In the supplement of paper PMC10567573:

B1: CLPTM1 (parent)
chain: LGCYAVYSLLYLEHKGWYSWVLSM
B2: CIB1 (parent)
chain: DLSRLVNCLTGEGEDTRLSASEMK

Variants of: B1
Test: protein stability index of a GFP-peptide fusion (GPS, HEK-293T) (PSI 1-6); higher = more stable
Details: c terminus: a fixed tail appended
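Note: lentivirally expressed fusions sorted by FACS into six bins by GFP to DsRed ratio, PSI derived from sequencing read proportions per bin multiplied by bin number.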

Row | Variant | protein stability index
1 | LGCYAVYSLLYLEHKGWYWWVLSM [S19W] | 2.66
2 | LGCYAVYSLLYLEHKGWYRWVLSM [S19R] | 1.76
3 | LGCYAVYSLLYLEHKGWYVWVLSM [S19V] | 1.92
4 | LGCYAVYSLLYLEHKGWYQWVLSM [S19Q] | 3.63
5 | LGCYAVYSLLYLEHKGWYKWVLSM [S19K] | 3.27
6 | LGCYAVYSLLYLEHKGWYSDVLSM [W20D] | 2.14
7 | LGCYAVYSLLYLEHKGWYSKVLSM [W20K] | 2.65
8 | LGCYAVYSLLYLEHKGWYSEVLSM [W20E] | 3.54
9 | LGCYAVYSLLYLEHKGWYSCVLSM [W20C] | 3.98
10 | LGCYAVYSLLYLEHKGWYSMVLSM [W20M] | 3.21
11 | LGCYAVYSLLYLEHKGWYSVVLSM [W20V] | 3.55
12 | LGCYAVYSLLYLEHKGWYSPVLSM [W20P] | 3.37
13 | LGCYAVYSLLYLEHKGWYSGVLSM [W20G] | 2.21
14 | LGCYAVYSLLYLEHKGWYSRVLSM [W20R] | 2.84
15 | LGCYAVYSLLYLEHKGWYSIVLSM [W20I] | 3.33
16 | LGCYAVYSLLYLEHKGWYSTVLSM [W20T] | 2.45
17 | LGCYAVYSLLYLEHKGWYSSVLSM [W20S] | 2.21
18 | LGCYAVYSLLYLEHKGWYSLVLSM [W20L] | 2.91
19 | LGCYAVYSLLYLEHKGWYSQVLSM [W20Q] | 2.07
20 | LGCYAVYSLLYLEHKGWYSNVLSM [W20N] | 3.58
21 | LGCYAVYSLLYLEHKGWYSHVLSM [W20H] | 1.87
22 | LGCYAVYSLLYLEHKGWYSFVLSM [W20F] | 1.72

Variants of: B2
Test: as above
Details: c terminus: a fixed tail appended

Row | Variant | protein stability index
23 | ILSRLVNCLTGEGEDTRLSASEMK [D1I] | 2.3
24 | RLSRLVNCLTGEGEDTRLSASEMK [D1R] | 3.68
25 | MLSRLVNCLTGEGEDTRLSASEMK [D1M] | 2.49
26 | TLSRLVNCLTGEGEDTRLSASEMK [D1T] | 2.06
27 | NLSRLVNCLTGEGEDTRLSASEMK [D1N] | 2.89
28 | GLSRLVNCLTGEGEDTRLSASEMK [D1G] | 3.69
29 | KLSRLVNCLTGEGEDTRLSASEMK [D1K] | 4.18
30 | LLSRLVNCLTGEGEDTRLSASEMK [D1L] | 2.04
31 | VLSRLVNCLTGEGEDTRLSASEMK [D1V] | 1.95
32 | CLSRLVNCLTGEGEDTRLSASEMK [D1C] | 2.65
33 | FLSRLVNCLTGEGEDTRLSASEMK [D1F] | 2.77
34 | PLSRLVNCLTGEGEDTRLSASEMK [D1P] | 4.33
35 | ALSRLVNCLTGEGEDTRLSASEMK [D1A] | 2.84
36 | HLSRLVNCLTGEGEDTRLSASEMK [D1H] | 3.25
37 | QLSRLVNCLTGEGEDTRLSASEMK [D1Q] | 3.56
38 | SLSRLVNCLTGEGEDTRLSASEMK [D1S] | 2.8
39 | YLSRLVNCLTGEGEDTRLSASEMK [D1Y] | 2.43
40 | DLSHLVNCLTGEGEDTRLSASEMK [R4H] | 3.96
41 | DLSMLVNCLTGEGEDTRLSASEMK [R4M] | 2.98
42 | DLSYLVNCLTGEGEDTRLSASEMK [R4Y] | 2.85
43 | DLSALVNCLTGEGEDTRLSASEMK [R4A] | 3.8
44 | DLSLLVNCLTGEGEDTRLSASEMK [R4L] | 3.47
45 | DLSGLVNCLTGEGEDTRLSASEMK [R4G] | 3.8
46 | DLSKLVNCLTGEGEDTRLSASEMK [R4K] | 3.12

Row | Variant | protein stability index
47 | DLSVLVNCLTGEGEDTRLSASEMK [R4V] | 2.01
48 | DLSFLVNCLTGEGEDTRLSASEMK [R4F] | 3.88
49 | DLSQLVNCLTGEGEDTRLSASEMK [R4Q] | 2.27
50 | DLSELVNCLTGEGEDTRLSASEMK [R4E] | 3.68
51 | DLSWLVNCLTGEGEDTRLSASEMK [R4W] | 3.45
52 | DLSPLVNCLTGEGEDTRLSASEMK [R4P] | 3.66
53 | DLSNLVNCLTGEGEDTRLSASEMK [R4N] | 2.39
54 | DLSCLVNCLTGEGEDTRLSASEMK [R4C] | 3.65
55 | DLSTLVNCLTGEGEDTRLSASEMK [R4T] | 4.46
56 | DLSILVNCLTGEGEDTRLSASEMK [R4I] | 2.48
57 | DLIRLVNCLTGEGEDTRLSASEMK [S3I] | 1.2
58 | DLYRLVNCLTGEGEDTRLSASEMK [S3Y] | 2.79
59 | DLFRLVNCLTGEGEDTRLSASEMK [S3F] | 2.9
60 | DLTRLVNCLTGEGEDTRLSASEMK [S3T] | 2.32
61 | DLKRLVNCLTGEGEDTRLSASEMK [S3K] | 3.27
62 | DLQRLVNCLTGEGEDTRLSASEMK [S3Q] | 2.84
63 | DLWRLVNCLTGEGEDTRLSASEMK [S3W] | 1.38
64 | DLNRLVNCLTGEGEDTRLSASEMK [S3N] | 2.39
65 | DLLRLVNCLTGEGEDTRLSASEMK [S3L] | 2.2
66 | DLGRLVNCLTGEGEDTRLSASEMK [S3G] | 3.72
67 | DLCRLVNCLTGEGEDTRLSASEMK [S3C] | 2.98
68 | DLMRLVNCLTGEGEDTRLSASEMK [S3M] | 3.1
69 | DLRRLVNCLTGEGEDTRLSASEMK [S3R] | 2.43
70 | DLERLVNCLTGEGEDTRLSASEMK [S3E] | 2.78

Row | Variant | protein stability index
71 | DLSRCVNCLTGEGEDTRLSASEMK [L5C] | 3.35
72 | DLSRGVNCLTGEGEDTRLSASEMK [L5G] | 5
73 | DLSRDVNCLTGEGEDTRLSASEMK [L5D] | 4.39
74 | DLSRHVNCLTGEGEDTRLSASEMK [L5H] | 3.23
75 | DLSRFVNCLTGEGEDTRLSASEMK [L5F] | 2.49
76 | DLSRKVNCLTGEGEDTRLSASEMK [L5K] | 4.53
77 | DLSRPVNCLTGEGEDTRLSASEMK [L5P] | 5.06
78 | DLSRAVNCLTGEGEDTRLSASEMK [L5A] | 3.99
79 | DNSRLVNCLTGEGEDTRLSASEMK [L2N] | 4.22
80 | DSSRLVNCLTGEGEDTRLSASEMK [L2S] | 5
81 | DISRLVNCLTGEGEDTRLSASEMK [L2I] | 2.82
82 | DYSRLVNCLTGEGEDTRLSASEMK [L2Y] | 3.82
83 | DFSRLVNCLTGEGEDTRLSASEMK [L2F] | 3.85
84 | DKSRLVNCLTGEGEDTRLSASEMK [L2K] | 4.56
85 | DWSRLVNCLTGEGEDTRLSASEMK [L2W] | 2.89
86 | DCSRLVNCLTGEGEDTRLSASEMK [L2C] | 3.87
87 | DQSRLVNCLTGEGEDTRLSASEMK [L2Q] | 4.6
88 | DPSRLVNCLTGEGEDTRLSASEMK [L2P] | 5.35
89 | DDSRLVNCLTGEGEDTRLSASEMK [L2D] | 4.32
90 | DHSRLVNCLTGEGEDTRLSASEMK [L2H] | 5.29
91 | DASRLVNCLTGEGEDTRLSASEMK [L2A] | 4.39
92 | DGSRLVNCLTGEGEDTRLSASEMK [L2G] | 5.22
93 | DESRLVNCLTGEGEDTRLSASEMK [L2E] | 5.67
94 | DMSRLVNCLTGEGEDTRLSASEMK [L2M] | 5.13
